Laboratory results taken from US20250215059A1 (REGENTS OF THE UNIVERSITY OF COLORADO A BODY CORPORATE, published 2025).

How the values were obtained:
[1] = target: T1, tau aggregates in HEK293 tau biosensor cells (4R repeat domain of tau (K18) with the P301S mutation fused to … (UniProt P10636-8 244-372)); experiment: Halo (JF646) imaging in seeded HEK293 tau biosensor cells
T1 construct: domain: 4R repeat domain of tau (K18); Aggregated, insoluble form inside cells; the aggregates are seeded with brain homogenate of tau transgenic mice and may hold other proteins and RNA; Number of chains in an aggregate not defined; also called cytoplasmic tau aggregates; nuclear tau aggregates; not shown: CFP or YFP fused to the repeat domain
T1 sequence (P10636 561-689 P618S): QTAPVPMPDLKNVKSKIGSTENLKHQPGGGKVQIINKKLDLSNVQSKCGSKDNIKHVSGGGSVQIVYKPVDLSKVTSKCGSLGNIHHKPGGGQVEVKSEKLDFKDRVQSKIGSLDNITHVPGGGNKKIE

[2] = target: T1, tau aggregates in HEK293 tau biosensor …; experiment: Halo (JF646) imaging; intensity in aggregate over adjacent region, five aggregates
Excerpt: The locations of the serine repeats are shown in yellow. B) Quantification of the enrichment of the various Halo tagged constructs in cytoplasmic tau aggregates. Cells both expressing the halo tagged construct and containing a tau aggregate were identified by hand, and the average Halo intensity within the tau aggregates were normalized by an adjacent region outside of the tau aggregate to calculate enrichment. […] C) Representative images of cells expressing the various Halo tagged C-terminal SRRM2 fragments. Cells were labeled with 200 nM JF646 added directly to culture media for 24 hours prior to fixation and imaging.

[3] = target: T1, tau aggregates in HEK293 tau biosensor …; experiment: Halo (JF646) imaging; intensity in aggregate over adjacent region, 5 aggregates
[4] = target: T1, tau aggregates in HEK293 tau biosensor …; experiment: cell-based or functional assay

Row | binding result [1] | mean enrichment in cytoplasmic tau aggregates [2] | mean enrichment in cytoplasmic tau aggregates [3] | tau aggregation by flow cytometry (FRET+ cells and integrated FRET density, normalized to no insert Halo) [4] | Binder
1 | no binding | 1.08 ratio | – | – | Halo alone (other, JF646 Halo ligand covalently bound, Control without a targeting motif; also called Halo tag; Halo protein) MAEIGTGFPFDPHYVEVLGERMHYVDVGPRDGTPVLFLHGNPTSSYVWRNIIPHVAPTHRCIAPDLIGMGKSDKPDLGYFFDDHVRFMDAFIEALGLEEVVLVIHDWGSALGFHWAKRNPERVKGIAFMEFIRPIPTWDEWPEFARETFQAFRTTDVGRKLIIDQNVFIEGTLPMGVVRPLTEVEMDHYREPFLNPVDREPLWRFPNELPIAGEPANIVALVEEYMDWLHQSPVPKLLFWGTPGVLIPPAEAARLAKSLPNCKAVDIGPGLNLLQEDNPDLIGSEIARWLSTLEISG
2 | no binding | 1.1 ratio | – | – | Frag_0-Halo (SRRM2 a.a. 2651-2752) (other, JF646 Halo ligand covalently bound to the Halo tag, PCR amplified from the SRRM2_FL-Halo cell line and expressed from a pcDNA plasmid with an added start codon) PAKPGPQALPKPASPKKPPPGERRSRSPRKPIDSLRDSRSLSYSPVERRRPSPQPSPRDQQSSSSERGSRRGQRGDSRSPSHKRRRETPSPRPMRHRSSRSPMAEIGTGFPFDPHYVEVLGERMHYVDVGPRDGTPVLFLHGNPTSSYVWRNIIPHVAPTHRCIAPDLIGMGKSDKPDLGYFFDDHVRFMDAFIEALGLEEVVLVIHDWGSALGFHWAKRNPERVKGIAFMEFIRPIPTWDEWPEFARETFQAFRTTDVGRKLIIDQNVFIEGTLPMGVVRPLTEVEMDHYREPFLNPVDREPLWRFPNELPIAGEPANIVALVEEYMDWLHQSPVPKLLFWGTPGVLIPPAEAARLAKSLPNCKAVDIGPGLNLLQEDNPDLIGSEIARWLSTLEISG
3 | – | – | 1.05 ratio | – | Halo tagged 10 serine repeat (other, JF646 Halo ligand covalently bound to the Halo tag, also called 10-serines) SSSSSSSSSSMAEIGTGFPFDPHYVEVLGERMHYVDVGPRDGTPVLFLHGNPTSSYVWRNIIPHVAPTHRCIAPDLIGMGKSDKPDLGYFFDDHVRFMDAFIEALGLEEVVLVIHDWGSALGFHWAKRNPERVKGIAFMEFIRPIPTWDEWPEFARETFQAFRTTDVGRKLIIDQNVFIEGTLPMGVVRPLTEVEMDHYREPFLNPVDREPLWRFPNELPIAGEPANIVALVEEYMDWLHQSPVPKLLFWGTPGVLIPPAEAARLAKSLPNCKAVDIGPGLNLLQEDNPDLIGSEIARWLSTLEISG
4 | – | – | – | ~50 % decrease | SRRM2 C-terminus-TNPO3-halo (other) MEGAKPTLQLVYQAVQALYHDPDPSGKERASFWLGELQRSVHAWEISDQLLQIRQDVESCYFAAQTMKMKIQTSFYELPTDSHASLRDSLLTHIQNLKDLSPVIVTQLALAIADLALQMPSWKGCVQTLVEKYSNDVTSLPFLLEILTVLPEEVHSRSLRIGANRRTEIIEDLAFYSSTVVSLLMTCVEKAGTDEKMLMKVFRCLGSWFNLGVLDSNFMANNKLLALLFEVLQQDKTSSNLHEAASDCVCSALYAIENVETNLPLAMQLFQGVLTLETAYHMAVAREDLDKVLNYCRIFTELCETFLEKIVCTPGQGLGDLRTLELLLICAGHPQYEVVEISFNFWYRLGEHLYKTNDEVIHGIFKAYIQRLLHALARHCQLEPDHEGVPEETDDFGEFRMRVSDLVKDLIFLIGSMECFAQLYSTLKEGNPPWEVTEAVLFIMAAIAKSVDPENNPTLVEVLEGVVRLPETVHTAVRYTSIELVGEMSEVVDRNPQFLDPVLGYLMKGLCEKPLASAAAKAIHNICSVCRDHMAQHFNGLLEIARSLDSFLLSPEAAVGLLKGTALVLARLPLDKITECLSELCSVQVMALKKLLSQEPSNGISSDPTVFLDRLAVIFRHTNPIVENGQTHPCQKVIQEIWPVLSETLNKHRADNRIVERCCRCLRFAVRCVGKGSAALLQPLVTQMVNVYHVHQHSCFLYLGSILVDEYGMEEGCRQGLLDMLQALCIPTFQLLEQQNGLQNHPDTVDDLFRLATRFIQRSPVTLLRSQVVIPILQWAIASTTLDHRDANCSVMRFLRDLIHTGVANDHEEDFELRKELIGQVMNQLGQQLVSQLLHTCCFCLPPYTLPDVAEVLWEIMQVDRPTFCRWLENSLKGLPKETTVGAVTVTHKQLTDFHKQVTSAEECKQVCWALRDFTRLFRGTELGSTSPVWWNSADIQSRCLIAQTTPVAGSQSLSSGAVATTTSSAGDHNGMLSVPAPGVPHSDVGEPPASTGAQQPSALAALQPAKERRSSSSSSSSSSSSSSSSSSSSSSSSSGSSSSDSEGSSLPVQPEVALKRVPSPTPAPKEAVREGRPPEPTPAKRKRRSSSSSSSSSSSSSSSSSSSSSSSSSSSSSSSSSSSSSSSSSSPSPAKPGPQALPKPASPKKPPPGERRSRSPRKPIDSLRDSRSLSYSPVERRRPSPQPSPRDQQSSSSERGSRRGQRGDSRSPSHKRRRETPSPRPMRHRSGGSGGSGGGSEIGTGFPFDPHYVEVLGERMHYVDVGPRDGTPVLFLHGNPTSSYVWRNIIPHVAPTHRCIAPDLIGMGKSDKPDLGYFFDDHVRFMDAFIEALGLEEVVLVIHDWGSALGFHWAKRNPERVKGIAFMEFIRPIPTWDEWPEFARETFQAFRTTDVGRKLIIDQNVFIEGTLPMGVVRPLTEVEMDHYREPFLNPVDREPLWRFPNELPIAGEPANIVALVEEYMDWLHQSPVPKLLFWGTPGVLIPPAEAARLAKSLPNCKAVDIGPGLNLLQEDNPDLIGSEIARWLSTLEISG
5 | – | – | 0.95 ratio | – | Halo tagged 5 serine repeat (other, JF646 Halo ligand covalently bound to the Halo tag, also called 5-serines) SSSSSMAEIGTGFPFDPHYVEVLGERMHYVDVGPRDGTPVLFLHGNPTSSYVWRNIIPHVAPTHRCIAPDLIGMGKSDKPDLGYFFDDHVRFMDAFIEALGLEEVVLVIHDWGSALGFHWAKRNPERVKGIAFMEFIRPIPTWDEWPEFARETFQAFRTTDVGRKLIIDQNVFIEGTLPMGVVRPLTEVEMDHYREPFLNPVDREPLWRFPNELPIAGEPANIVALVEEYMDWLHQSPVPKLLFWGTPGVLIPPAEAARLAKSLPNCKAVDIGPGLNLLQEDNPDLIGSEIARWLSTLEISG
